From doi:10.1101/2020.10.28.359091 (bioRxiv, 2020)
Read-outs that look alike come from different tables or passages of the source. One block for each molecule: values may come before it. No end group written: not given here. *: point of attachment. FITC = O=C1OC2(c3ccc(O)cc3Oc3cc(O)ccc32)c2ccc(NC(=S)*)cc21

Columns and labels:
[1] = target: RXR/RAR LBD heterodimer (mouse RXRα LBD with human RARα LBD) (human | mouse) (UniProt P10276); assay: fluorescence polarisation
[2] = target: RXR/RAR LBD heterodimer (mouse RXRα LBD with human RARα LBD) (human | mouse) (UniProt P10276); assay: fluorescence polarisation; remark: listed apart in the source
[3] = target: T1, RARα ligand-binding domain (RAR LBD) (human, UniProt P10276-1 176-421); assay: crystal structure
T1 sequence: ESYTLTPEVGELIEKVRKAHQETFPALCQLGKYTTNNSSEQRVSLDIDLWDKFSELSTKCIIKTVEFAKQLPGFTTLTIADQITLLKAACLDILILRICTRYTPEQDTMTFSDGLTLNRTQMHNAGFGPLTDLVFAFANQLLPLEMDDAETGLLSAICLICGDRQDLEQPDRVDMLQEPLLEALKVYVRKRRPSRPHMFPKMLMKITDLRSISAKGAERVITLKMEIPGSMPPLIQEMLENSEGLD

[4] = target: T1, RARα ligand-binding domain (RAR LBD); assay: fluorescence polarisation
[5] = target: T1, RARα ligand-binding domain (RAR LBD); assay: crystal structure; remark: listed apart in the source

Kd [1]: 200 nM
Kd [2]: 1340 nM
fold decrease of Kd against the apo heterodimer [2]: 9 fold
Molecule: TIF2 nuclear receptor interaction domain (TIF2_(NRID)), residues 624-773, wild type (domain or fragment)

binding result [3]: binds
Molecule: RHKILHRLLQEGSPSDITTLSVEPDKK [SRC1 NR2-Ext peptide (RHKILHRLLQEGSPSDITTLSVEPDKK)]

binding result [4]: binds
Molecule: KHKILHRLLQDSS [TIF2 NR2 peptide (KHKILHRLLQDSS), unlabelled]

binding result [5]: binds
Molecule: KHKILHRLLQDSSSPVDLAKLTAEATGK [TIF2 NR2-Ext peptide (K686-K713), unlabelled]

binding result [4]: binds
Molecule: RHKILHRLLQEGS [SRC1 NR2 peptide (RHKILHRLLQEGS), unlabelled]

binding result [4]: binds
Molecule: {FITC}-LTERHKILHRLLQEGSP [FITC-SRC1 NR2 peptide (FITC-LTERHKILHRLLQEGSP)]
